# Target: SpyTag-γPFD-Cys (not stated | Methanocaldococcus jannaschii)
# Experiment: leaching of fluorescent protein from the hydrogel, fluorescence of the buffer
substance,measurement,value
SpyCatcher-mCerulean3,percent leached from the hydrogel after two weeks,35%
